Measured values taken from US20050159590A1.

Biological target: IL-1 receptor (type I) on T24 cells (UniProt P14778)
Assay: cell-based or functional assay

Chain of UniProt P14778 (P14778 18-569 limits assumed): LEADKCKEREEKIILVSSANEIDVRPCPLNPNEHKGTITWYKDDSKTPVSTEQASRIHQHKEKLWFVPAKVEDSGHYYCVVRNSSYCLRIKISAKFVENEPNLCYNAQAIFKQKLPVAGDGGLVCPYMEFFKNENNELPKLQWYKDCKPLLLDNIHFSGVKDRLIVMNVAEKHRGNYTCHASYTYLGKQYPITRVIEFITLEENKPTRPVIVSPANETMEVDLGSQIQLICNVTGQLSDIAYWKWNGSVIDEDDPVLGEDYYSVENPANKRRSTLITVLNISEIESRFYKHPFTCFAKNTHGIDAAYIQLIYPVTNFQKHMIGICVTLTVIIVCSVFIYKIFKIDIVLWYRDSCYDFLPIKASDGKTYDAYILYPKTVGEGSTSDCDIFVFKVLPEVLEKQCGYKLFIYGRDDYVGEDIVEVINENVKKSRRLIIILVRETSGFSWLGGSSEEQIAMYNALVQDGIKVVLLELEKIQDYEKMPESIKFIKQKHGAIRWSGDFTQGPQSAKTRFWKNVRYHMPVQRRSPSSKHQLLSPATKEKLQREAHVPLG

inhibition of IL-1β-induced secretion of IL-8 from T24 cells, at 200 µg/ml [%] | inhibition of IL-1β-induced secretion of IL-8 from T24 cells, at 600 µg/ml [%] | inhibition of IL-1β-induced secretion of IL-8 from T24 cells, at 1800 µg/ml [%] | inhibition of IL-1β-induced secretion of IL-8 from T24 cells, at 8000 µg/ml [%] | inhibition of IL-1β-induced secretion of IL-8 from T24 cells, at 600 µg/ml or above [%] | Substance
70 | 50 | 100 | 100 |  | His-tagged IL-1Ra wild type (without signal peptide) from E. coli (from UniProt P18510 26-177) (ligand)
> 70 |  |  |  | 100 | commercial IL-1Ra WT (obtained from Prospec Tany TechnoGene Ltd (Rehovot Israel)) (from UniProt P18510 26-177) (ligand)
